Columns and labels:
[1] = tested on: Kupffer cells; assay: cAMP radioimmunoassay, intracellular cAMP in Kupffer cells; type: cell-based, rat; details: for effect on cAMP level, agent alone: RAP 500 nM alone, lactoferrin 100 nM
Protocol: (§1) Liver cell isolation. […] The nonparenchymal cell-containing supernatant was saved.
(§2) Cell culture. […] HepG2 cells were used on day 3 after plating.
(§3) Cell treatment. […] Role of calcium and cyclic AMP. […] J Immunol 174: 2981-2989). […] IBMX was dissolved in dimethyl sulphoxide (DMSO).
(§4) cAMP radioimmunoassay. For cAMP determination, liver cell cultures were incubated in culture medium without FCS at 37° C. for 0-90 min. The cultures were then placed on ice, and the reaction was stopped by aspiration of the incubation medium followed by the addition of 1 ml of ice cold 65% (vol/vol) ethanol. The cells were scraped into Eppendorf tubes and centrifuged at 10000 g for 10 min at 4° C. The supernatants were dried in SC110 Speedvac Concentrator (Savant, Farmingdale, N.Y.) at room temperature, and the dried extracts were dissolved in assay buffer for cAMP determination with cAMP [^125I] Direct Biotrak Assay from Amersham Biosciences (Piscataway, N.J.), according to the instructions of the manufacturer. Samples were analyzed with a Beckman LS 6000 scintillation counter. The cAMP level in each sample was normalized to the protein concentration and expressed as fmol/μg of protein. Ethanol-precipitated cell pellets were diluted with 0.15 M NaOH and the protein concentration was measured with the Micro BCA Protein Assay Kit (Pierce Chemical Co., Rockford, Ill.) according to manufacturer's instructions.

[2] = tested on: Liver endothelial cells; assay: cAMP radioimmunoassay, intracellular cAMP in liver endothelial cells; type: cell-based, rat
Protocol: as §1, §2, §3, §4

[3] = tested on: Hepatocytes; assay: cAMP radioimmunoassay, intracellular cAMP in hepatocytes; type: cell-based, rat
Protocol: as §1, §2, §3, §4

[4] = tested on: HepG2 cells; assay: cAMP radioimmunoassay, intracellular cAMP in HepG2 cells; type: cell-based, human
Protocol: as §2, §3, §4

[5] = tested on: Kupffer cells; assay: Inositol-1,4,5-trisphosphate (IP3) assay in Kupffer cells; type: cell-based, rat; details: data not shown
Protocol: as §1, §2
Inositol-1,4,5-trisphosphate (IP3) assay. Intracellular IP3 levels were measured with a IP3 [^3H] Biotrak Assay (Amersham Biosciences, Piscataway, N.J.). Liver cells (3.0×10^6 per well) were incubated for 0, 30, 60, 120 sec with 100 nM CSP in RPMI-1640 containing 10 mM LiCI. The plates were then placed on ice, and the reaction was stopped by aspiration of the incubation medium followed by the addition of 20% ice-cold perchloric acid. After incubation on ice for 20 min, the cells were scraped into Eppendorf tubes. The precipitated protein was removed by centrifugation at 10000 g for 15 min at 4° C. The supernatant was neutralized to pH 7.5 by titrating with ice-cold 1.5 M KOH containing 60 mM HEPES buffer. The precipitated KClO4 was removed by centrifugation at 5000 g for 15 min at 4° C. Radioactivity in the supernatant was measured with a Beckman LS 6000 scintillation counter.

Row | Molecule | cAMP ([1]; Kupffer cells, 100 nM lactoferrin, 30 min at 37° C., serum-free RPMI-1640, mean±S.E.) [fmol/μg protein] | effect on cAMP level, agent alone ([1]; Kupffer cells) | cAMP ([2]; Liver endothelial cells, 100 nM lactoferrin, 30 min at 37° C., mean±S.E.) [fmol/μg protein] | effect on cAMP concentration ([2]; endothelial cells) | cAMP ([3]; Hepatocytes, 100 nM lactoferrin, 30 min at 37° C., mean±S.E.) [fmol/μg protein] | effect on cAMP concentration ([3]; hepatocytes) | cAMP ([4]; HepG2 cells, 100 nM lactoferrin, 30 min at 37° C., mean±S.E.) [fmol/μg protein] | effect on cAMP concentration ([4]; human hepatoma cell line HepG2) | effect on the CSP-induced generation of cAMP ([1]; added 10 min before 50 nM CSP (30 min), RAP 500 nM) | effect on IP3, agent alone ([5]; RAP alone) | effect on the CSP-induced IP3 increase ([5]; preincubation 10 min with 500 nM RAP before CSP)
1 | Lactoferrin: lactoferrin (LF; from bovine colostrum), another LRP-1 ligand (protein, UniProt P24627 20-708, looked up) Lactotransferrin: APRKNVRWCTISQPEWFKCRRWQWRMKKLGAPSITCVRRAFALECIRAIAEKKADAVTLDGGMVFEAGRDPYKLRPVAAEIYGTKESPQTHYYAVAVVKKGSNFQLDQLQGRKSCHTGLGRSAGWIIPMGILRPYLSWTESLEPLQGAVAKFFSASCVPCIDRQAYPNLCQLCKGEGENQCACSSREPYFGYSGAFKCLQDGAGDVAFVKETTVFENLPEKADRDQYELLCLNNSRAPVDAFKECHLAQVPSHAVVARSVDGKEDLIWKLLSKAQEKFGKNKSRSFQLFGSPPGQRDLLFKDSALGFLRIPSKVDSALYLGSRYLTTLKNLRETAEEVKARYTRVVWCAVGPEEQKKCQQWSQQSGQNVTCATASTTDDCIVLVLKGEADALNLDGGYIYTAGKCGLVPVLAENRKSSKHSSLDCVLRPTEGYLAVAVVKKANEGLTWNSLKDKKSCHTAVDRTAGWNIPMGLIVNQTGSCAFDEFFSQSCAPGADPKSRLCALCAGDDQGLDKCVPNSKEKYYGYTGAFRCLAEDVGDVAFVKNDTVWENTNGESTADWAKNLNREDFRLLCLDGTRKPVTEAQSCHLAVAPNHAVVSRSDRAAHVKQVLLHQQALFGKNGKNCPDKFCLFKSETKNLLFNDNTECLAKLGGRPTYEEYLGTEYVTAIANLKKCSTSPLLEACAFLTR | 14.10 ± 2.10 | no significant effect | 5.58 ± 0.30 | no significant effect | 2.61 ± 0.09 | no significant effect | 6.50 ± 0.07 | no significant effect |  |  | 
2 | RAP: Recombinant human RAP, universal inhibitor of ligand binding to LRP-1 (protein, UniProt P30533 35-357, looked up) Alpha-2-macroglobulin …: YSREKNQPKPSPKRESGEEFRMEKLNQLWEKAQRLHLPPVRLAELHADLKIQERDELAWKKLKLDGLDEDGEKEARLIRNLNVILAKYGLDGKKDARQVTSNSLSGTQEDGLDDPRLEKLWHKAKTSGKFSGEELDKLWREFLHHKEKVHEYNVLLETLSRTEEIHENVISPSDLSDIKGSVLHSRHTELKEKLRSINQGLDRLRRVSHQGYSTEAEFEEPRVIDLWDLAQSANLTDKELEAFREELKHFEAKIEKHNHYQKQLEIAHEKLRHAESVGDGERVSRSREKHALLEGRTKELGYTVKKHLQDLSGRISRARHNEL |  | had no effect |  |  |  |  |  |  | blocked | had no effect | prevented this increase
